We go through eight molecules from patent US20220175916A1, “METHODS AND COMPOSITIONS FOR TREATING CHRONIC EFFECTS OF RADIATION AND CHEMICAL EXPOSURE” (priority 2018, published 2022).

In data set [1] the test system is transgenic mouse model p16-3MR. As to conditions: cited from earlier work; for Effect of elimination of senescent cells on running activity and strength: after doxorubicin or paclitaxel.
The test system of data set [2] is breast cancer cells (MMTV-PyMT). As to conditions: cited from earlier work.
Data set [3] has as its system transgenic mouse model p16-3MR. As to conditions: cited from earlier work.
The test system of data set [4] is transgenic mouse model p16-3MR. To be noted: cited from earlier work; for Induction of senescence in vivo: keratinocytes, endothelial cells, fibroblasts and smooth muscle cells; for p16INK4a expression in the skin: mice administered the agent.
The test system of data set [5] is murine embryonic fibroblasts, murine dermal fibroblasts and human dermal fibroblasts. To be noted: fibroblasts treated in vitro; cited from earlier work.
Data set [6] has as its system human histiocytic lymphoma U937 cell line. The data set is described as follows: Senescence-associated β-galactosidase assay by fluorescent microscope imaging. Format: cell-based. As to the method:
Cells from the human histiocytic lymphoma U937 cell line were treated with doxorubicin, a chemotherapeutic agent, to induce senescence. Cells were treated with 0 μM, 0.01 μM, 0.1 μM or 1 μM doxorubicin for 3 days, or were treated with 0 μM, 0.1 μM or 1 μM doxorubicin for 6 days. Senescence was measured with a senescence-associated β-galactosidase assay by fluorescent microscope imaging.

In data set [7] the target is carboxymethyl lysine conjugated to keyhole limpet hemocyanin (CML-KLH). The data set is described as follows: direct ELISA, CML-KLH coat 1 ug/mL, antibody at 0.07 ug/mL. For orientation: In an ELISA, binding on a coated surface is turned into a signal by an enzyme label.
Data set [8] has the same target. As to the kind of experiment: direct ELISA, CML-KLH coat 1 ug/mL, antibody at 16.67 ug/mL.
The target is the same in data set [9]. The data set is described as follows: direct ELISA, CML-KLH coat 1 ug/mL, antibody at 0.62 ug/mL.
Data set [10] shares this target. As to the kind of experiment: direct ELISA, CML-KLH coat 1 ug/mL, antibody at 50 ug/mL.
For data set [11] the target is unchanged. As to the kind of experiment: direct ELISA, CML-KLH coat 1 ug/mL, antibody at 0 ug/mL (buffer control, background).
Data set [12] shares this target. As to the kind of experiment: direct ELISA, CML-KLH coat 1 ug/mL, antibody at 1.85 ug/mL.
Data set [13] shares this target. As to the kind of experiment: direct ELISA, CML-KLH coat 1 ug/mL, antibody at 5.56 ug/mL.
For data set [14] the target is unchanged. The data set is described as follows: direct ELISA, CML-KLH coat 1 ug/mL, antibody at 0.21 ug/mL.
Data set [15] can be described thus: Direct binding ELISA, CML coat. The source says: (§1) The binding of the murine (parental) and chimeric anti-AGE antibodies described in Example 3 was investigated by a direct binding ELISA. An anti-carboxymethyl lysine (CML) antibody (R&D Systems, MAB3247) was used as a control. CML was conjugated to KLH (CML-KLH) and both CML and CML-KLH were coated overnight onto an ELISA plate. HRP-goat anti-mouse Fc was used to detect the control and murine (parental) anti-AGE antibodies. HRP-goat anti-human Fc was used to detect the chimeric anti-AGE antibody.
(§2) The antigens were diluted to 1 μg/mL in 1× phosphate buffer at pH 6.5. A 96-well microtiter ELISA plate was coated with 100 μL/well of the diluted antigen and let sit at 4° C. overnight. The plate was blocked with 1×PBS, 2.5% BSA and allowed to sit for 1-2 hours the next morning at room temperature. The antibody samples were prepared in serial dilutions with 1×PBS, 1% BSA with the starting concentration of 50 μg/mL. Secondary antibodies were diluted 1:5,000. 100 μL of the antibody dilutions was applied to each well. The plate was incubated at room temperature for 0.5-1 hour on a microplate shaker. The plate was washed 3 times with 1×PBS. 100 μL/well diluted HRP-conjugated goat anti-human Fc secondary antibody was applied to the wells. The plate was incubated for 1 hour on a microplate shaker. The plate was then washed 3 times with 1×PBS. 100 μL HRP substrate TMB was added to each well to develop the plate. After 3-5 minutes elapsed, the reaction was terminated by adding 100 μL of 1N HCl. A second direct binding ELISA was performed with only CML coating. The absorbance at OD450 was read using a microplate reader.
(§3) The OD450 absorbance raw data for the CML and CML-KLH ELISA is shown in the plate map below. 48 of the 96 wells in the well plate were used. Blank wells in the plate map indicate unused wells.
The OD450 absorbance raw data for the CML-only ELISA is shown in the plate map below. 24 of the 96 wells in the well plate were used. Blank wells in the plate map indicate unused wells.

Data set [16] has as its system CML-KLH. As to the kind of experiment: Direct binding ELISA, CML-KLH coat. To be noted: for OD450 absorbance: CML-KLH Coat.
Description: as §1, §2, §3

With `CC1(C)CCC(c2ccc(Cl)cc2)=C(CN2CCN(c3ccc(C(=O)NS(=O)(=O)c4ccc(N[C@H](CCN5CCOCC5)CSc5ccccc5)c(S(=O)(=O)C(F)(F)F)c4)cc3)CC2)C1` [ABT-263], in [1], the “Effect of elimination of senescent cells on running activity and strength” value was “nearly reversed the decline in running activity and improved the loss of strength”.
Consider `Nc1nc(O)c2ncn(COC(CO)CO)c2n1` [GCV, ganciclovir], for which, in data set [2] (doxorubicin followed by GCV), the “Survival and cancer metastases vs doxorubicin followed by vehicle” value was “increased survival and reduced cancer metastases”. The “Tumor growth, metastases and metastatic foci vs vehicle” value in [2] (surgical removal of palpable tumors prior to treatment) is “smaller tumor growth, reduced cancer metastases and fewer metastatic foci”. Further, in data set [3] (after doxorubicin), the “Effect of elimination of senescent cells on inflammatory factors, HPCs and cardiac function” value was “reduced circulating inflammatory factors, promoted the functional recovery of HPCs and prevented cardiac dysfunction”. In data set [1], the “Effect of elimination of senescent cells on running activity and strength” value is “nearly reversed the decline in running activity and improved the loss of strength”.
Regarding `N.N.[Cl][Pt][Cl]` [cisplatin], in data set [4], the “Induction of senescence in vivo” value was “induced senescence in various cell types” and the “p16INK4a expression in the skin” value is listed as “elevated p^16INK4a expression in the skin”.
For the molecule `COc1cccc2c1C(=O)c1c(O)c3c(c(O)c1C2=O)C[C@@](O)(C(=O)CO)C[C@@H]3O[C@H]1C[C@H](N)[C@H](O)[C@H](C)O1` [doxorubicin], the “Induction of senescence in vivo” value in data set [4] is listed as “induced senescence in various cell types”. Further, the “Induction of cellular senescence (SA-β-gal, DNA synthesis, p16INK4a mRNA, SASP, p21, LaminB1)” value in data set [5] is listed as “symptoms of cellular senescence”. Moreover, the “Cells that fluoresce (senescence-associated β-galactosidase)” value is listed as “about 85%” in [6] (0.01 μM for 3 days); “about 65%” in data set [6] (0.1 μM for 3 days); “about 85%” in data set [6] (0.1 μM for 6 days); “about 60%” in data set [6] (1 μM for 3 days); “about 85%” in [6] (1 μM for 6 days). In addition, the Cell death entry in data set [6] (1 μM) is “significant cell death”. Further, the “Concentration of peak senescence induction” value in [6] (treatment for 3-6 days) amounted to 0.1 µM. Further, the “Effect on SASP factor genes, HPC function and cardiac function” value in [3] (genetically engineered mice) was “increased expression of SASP factor genes associated with inflammation, reduction of hematopoietic progenitor cell (HPC) function and reduction in cardiac function”. In data set [1] (running activity), the “Chemotherapy-induced fatigue and strength” value is “chemotherapy-induced fatigue, as measured by running activity, and decline in strength”.
Regarding `CC(=O)O[C@H]1C(=O)[C@@]2(C)[C@H]([C@H](OC(=O)c3ccccc3)[C@]3(O)C[C@H](OC(=O)[C@H](O)[C@@H](NC(=O)c4ccccc4)c4ccccc4)C(C)=C1C3(C)C)[C@]1(OC(C)=O)CO[C@@H]1C[C@@H]2O` [paclitaxel], in [5], the “Induction of cellular senescence (SA-β-gal, DNA synthesis, p16INK4a mRNA, SASP, p21, LaminB1)” value was “symptoms of cellular senescence”.
As for `Cn1nnc2c(C(N)=O)ncn2c1=O` [temozolomide], in [4], the “Induction of senescence in vivo” value is recorded as “induced senescence in various cell types” and the “p16INK4a expression in the skin” value is “elevated p^16INK4a expression in the skin”.
On to “carboxymethyl lysine MAb (Clone 318003), R&D Systems, catalog no. MAB3247 (antibody)”, for which the OD450 in [7] worked out at 0.086 OD450; in data set [8] it was 0.312 OD450; in data set [9], 0.083 OD450; in data set [10], 0.462 OD450; in [11], 0.09 OD450; in [12] it was 0.092 OD450. For the same molecule, the OD450 in data set [13] is 0.165 OD450; in data set [14] it was 0.075 OD450.

B1: Parental Anti-AGE: murine anti-AGE IgG2b antibody, heavy chain DNA SEQ ID NO: 12, kappa light chain DNA SEQ ID NO: 14 (antibody)
heavy: MDPKGSLSWRILLFLSLAFELSYGQVQLLQPGAELVKPGASVKLACKASGYLFTTYWMHWLKQRPGQGLEWIGEISPTNGRAYYNARFKSEATLTVDKSSNTAYMQLSSLTSEASAVYYCARAYGNYEFAYWGQGTLVTVSVAKTTPPSVYPLAPGCGDTTGSSVTLGCLVKGYFPESVTVTWNSGSLSSSVHTFPALLQSGLYTMSSSVTVPSSTWPSQTVTCSVAHPASSTTVDKKLEPSGPISTINPCPPCKECHKCPAPNLEGGPSVFIFPPNIKDVLMISLTPKVTCVVVDVSEDDPDVQISWFVNNVEVHTAQTQTHREDYNSTIRVVSTLPIQHQDWMSGKEFKCKVNNKDLPSPIERTISKIKGLVRAPQVYILPPPAEQLSRKDVSLTCLVVGFNPGDISVEWTSNGHTEENYKDTAPVLDSDGSYFIYSKLNMKTSKWEKTDSFSCNVRHEGLKNYYLKKTISRSPG
light: METDTLLLWVLLLWVPGSTGDVVMTQTPLSLPVSLGDQASISCRSRQSLVNSNGNTFLQWYLQKPGQSPKLLIYKVSLRFSGVPDRFSGSGSGTDFTLKISRVEAEDLGLYFCSQSTHVPPTFGGGTKLEIKRADAAPTVSIFPPSSEQLTSGGASVVCFLNNFYPKDINVKWKIDGSERQNGVLNSWTDQDSKDSTYSMSSTLTLTKDEYERHNSYTCEATHKTSTSPIVKSFNRNEC
modifications: Murine anti-AGE IgG2b heavy chain; Murine anti-AGE Kappa light chain
Turning to B1, the OD450 absorbance in [15] (CML Coat (CML and CML-KLH ELISA), antibody 0.07 μg/mL) is given as 0.096; in data set [15] (CML Coat (CML and CML-KLH ELISA), antibody 0.21 μg/mL), 0.096; in data set [15] (CML Coat (CML and CML-KLH ELISA), antibody 0.62 μg/mL), 0.085; in data set [15] (CML Coat (CML and CML-KLH ELISA), antibody 1.85 μg/mL) it was 0.099; in data set [15] (CML Coat (CML and CML-KLH ELISA), antibody 5.56 μg/mL), 0.115; in data set [15] (CML Coat (CML and CML-KLH ELISA), antibody 16.67 μg/mL), 0.13. Further, the OD450 absorbance is recorded as 0.142 in data set [15] (CML Coat (CML and CML-KLH ELISA), antibody 50 μg/mL); 0.055 in data set [15] (second, CML-only ELISA, antibody 0.068587 μg/mL); 0.056 in data set [15] (second, CML-only ELISA, antibody 0.205761 μg/mL); 0.103 in data set [15] (second, CML-only ELISA, antibody 0.617284 μg/mL); 0.078 in data set [15] (second, CML-only ELISA, antibody 1.851852 μg/mL); 0.166 in data set [15] (second, CML-only ELISA, antibody 5.555556 μg/mL). Further, the OD450 absorbance in data set [15] (second, CML-only ELISA, antibody 16.66667 μg/mL) is 0.226; in data set [15] (second, CML-only ELISA, antibody 50 μg/mL) it was 0.165; in data set [16] (antibody 0.07 μg/mL), 0.086; in data set [16] (antibody 0.21 μg/mL) it was 0.066; in [16] (antibody 0.62 μg/mL), 0.072; in data set [16] (antibody 1.85 μg/mL) it was 0.063. Further, the OD450 absorbance is on record as 0.063 in [16] (antibody 5.56 μg/mL), 0.067 in [16] (antibody 16.67 μg/mL) and 0.092 in [16] (antibody 50 μg/mL). Further, the “Binding to CML (in words)” value in data set [15] (direct binding ELISA) is “very weak to no binding”. Besides, the “Binding to CML-KLH (in words)” value in data set [16] (direct binding ELISA) is listed as “very weak to no binding”.
